# Reference: patent EP0693936B1
# Target: native OmpL1, 31-kDa outer membrane protein of Leptospira alstoni (Leptospira alstoni)
# Experiment: immunoelectron microscopy of intact L. alstoni, protein G-colloidal gold (control serum)
substance,measurement,value
preimmune serum from the same rabbit as the anti-OmpL1 antiserum (control serum),gold particles per twenty organisms (particles per twenty organisms),1
